# In patent US20210317204A1 (ALMAC DISCOVERY, published 2021):
# Where a chain is given by its changes, count along the chain named. Numbers in names are those of the source.
# B1: P3A1 VNAR with 6xHis tag (VNAR, not shown: small tags and cut ends)
# VNAR: TRVDQTPRTATKETGESLTINCVLTDTSYGLYSTSWFRKNPGTTDWERMSIGGRYVESVNKGAKSFSLRIKDLTVADSATYYCKAREARHPWLRQWYDGAGTVLTVN
# notes: shark VNAR domain; also called P3A1 6xHis
# B2: P3A1 VNAR with His6Myc tag (VNAR)
# VNAR: TRVDQTPRTATKETGESLTINCVLTDTSYGLYSTSWFRKNPGTTDWERMSIGGRYVESVNKGAKSFSLRIKDLTVADSATYYCKAREARHPWLRQWYDGAGTVLTVNQ
# notes: shark VNAR domain; also called P3A1 6xHis myc
# B3: P3A1-[G4S]5-P3A1 homodimer with His6Myc tag (VNAR)
# chain: TRVDQTPRTATKETGESLTINCVLTDTSYGLYSTSWFRKNPGTTDWERMSIGGRYVESVNKGAKSFSLRIKDLTVADSATYYCKAREARHPWLRQWYDGAGTVLTVNGGGGSGGGGSGGGGSGGGGSGGGGSTRVDQTPRTATKETGESLTINCVLTDTSYGLYSTSWFRKNPGTTDWERMSIGGRYVESVNKGAKSFSLRIKDLTVADSATYYCKAREARHPWLRQWYDGAGTVLTVNQASGAHHHHHHGAEFEQKLISEEDL
# notes: genetic fusion of two VNAR domains; also called P3A1 dimer 6xHis myc; P3A1-P3A1
# B4: P3A1 dimer without tag (VNAR)
# chain: TRVDQTPRTATKETGESLTINCVLTDTSYGLYSTSWFRKNPGTTDWERMSIGGRYVESVNKGAKSFSLRIKDLTVADSATYYCKAREARHPWLRQWYDGAGTVLTVNGGGGSGGGGSGGGGSGGGGSGGGGSTRVDQTPRTATKETGESLTINCVLTDTSYGLYSTSWFRKNPGTTDWERMSIGGRYVESVNKGAKSFSLRIKDLTVADSATYYCKAREARHPWLRQWYDGAGTVLTVN
# notes: also called P3A1 dimer No tag
# B5: P3A1-P3A1-S-mal-vcMMAE (VNAR)
# chain: TRVDQTPRTATKETGESLTINCVLTDTSYGLYSTSWFRKNPGTTDWERMSIGGRYVESVNKGAKSFSLRIKDLTVADSATYYCKAREARHPWLRQWYDGAGTVLTVNGGGGSGGGGSGGGGSGGGGSGGGGSTRVDQTPRTATKETGESLTINCVLTDTSYGLYSTSWFRKNPGTTDWERMSIGGRYVESVNKGAKSFSLRIKDLTVADSATYYCKAREARHPWLRQWYDGAGTVLTVNQASGAHHHHHHGAEFEQKLISEEDLG
# modifications: chain 1 pos 265 (C-terminal Gly, written G): carboxyl amidated with cysteamine (intein cleavage); its thiol joined by thioether to maleimide MC vc PAB MMAE
# B6: P3A1-P3A1-Ox-vcMMAE (VNAR)
# chain: B5 chain
# modifications: chain 1 pos 265 (C-terminal Gly, written G): carboxyl derivatised with O,O'-1,3-propanediylbishydroxylamine (C-terminal aminoxy), joined by oxime to benzaldehyde PEG2 vc PAB MMAE
# notes: linker as for m77
# B7: P3A1-P3A1-Ox-MMAE (VNAR)
# chain: B5 chain
# modifications: chain 1 pos 265 (C-terminal Gly, written G): carboxyl derivatised with O,O'-1,3-propanediylbishydroxylamine (C-terminal aminoxy), joined by oxime to benzaldehyde PEG4 MMAE (non-cleavable)
# notes: linker as for m77
# B8: BA11 humanised VNAR (VNAR)
# VNAR: TRVDQSPSSLSASVGDRVTITCVLTDTSYPLYSTYWYRKNPGSSNKEQISISGRYSESVNKGTKSFTLTISSLQPEDSATYYCRAMSTNIWTGDGAGTKVEIK
# B9: BA11-oxime-fluorescein (VNAR)
# VNAR: B8 VNAR
# modifications: C-terminal aminoxy joined by oxime to benzaldehyde-peg-fluorescein
# B10: BA11 C-terminal thiol derivative (VNAR)
# VNAR: B8 VNAR
# modifications: C-terminal thiol from cysteamine cleavage of the intein fusion
# notes: also called BA11-SH
# B11: BA11-cys-maleimide-peg-fluorescein (VNAR)
# VNAR: B8 VNAR
# modifications: C-terminal cysteine joined to maleimide-peg-fluorescein
# notes: also called BA11-cys-mal-Fl
# B12: BA11-S-maleimide-peg-fluorescein (VNAR)
# VNAR: B8 VNAR
# modifications: C-terminal thiol joined to maleimide-peg-fluorescein
# notes: also called BA11-S-mal-Fl
# B13: BA11 C-terminal cysteine derivative (VNAR)
# VNAR: B8 VNAR
# modifications: additional C-terminal cysteine from cysteine cleavage of the intein fusion
# notes: also called BA11-cys
# B14: BA11-aminoxy (VNAR)
# VNAR: B8 VNAR
# modifications: C-terminal aminoxy from dioxyamine cleavage of the intein fusion
# B15: P3A1 V1 dimer (VNAR)
# chain: TRVDQSPSSLSASVGDRVTITCVLTDTSYGLYSTSWFRKNPGTTDWERMSIGGRYVESVNKGAKSFTLTISSLQPEDFATYYCKAREARHPWLRQWYDGAGTKVEIKGGGGSGGGGSGGGGSGGGGSGGGGSTRVDQSPSSLSASVGDRVTITCVLTDTSYGLYSTSWFRKNPGTTDWERMSIGGRYVESVNKGAKSFTLTISSLQPEDFATYYCKAREARHPWLRQWYDGAGTKVEIKQASGAHHHHHHGAEFEQKLISEEDLG
# notes: humanised VNAR dimer
# B16: P3A1 G2 dimer (VNAR)
# chain: B15 chain with S35Y, F37Y, V56S, F78S, K84R, S167Y, F169Y, V188S, F210S, K216R
# notes: humanised VNAR dimer
# B17: D3 humanised EL V2 (VNAR)
# VNAR: ASVNQSPSSLSASVGDRVTITCVLTDTSYGLYSTSWFRKNPGTTDWERMSIGGRYVESVNKRAKSFTLTISSLQPEDFATYYCKAQSGMAISTGSGHGYNWYDGAGTKVEIK
# notes: also called D3 EL V2
# B18: D3 humanised EL V4 (VNAR)
# VNAR: B17 VNAR with F37Y, R38Q, K39Q, N40K
# notes: also called D3 EL V4
# B19: P3A1 G1 dimer (VNAR)
# chain: TRVDQSPSSLSASVGDRVTITCVLTDTSYGLYSTYWYRKNPGSSNKEQISISGRYSESVNKGTKSFTLTISSLQPEDSATYYCRAREARHPWLRQWYDGAGTKVEIKGGGGSGGGGSGGGGSGGGGSGGGGSTRVDQSPSSLSASVGDRVTITCVLTDTSYGLYSTYWYRKNPGSSNKEQISISGRYSESVNKGTKSFTLTISSLQPEDSATYYCRAREARHPWLRQWYDGAGTKVEIKQASGAHHHHHHGAEFEQKLISEEDLG
# notes: humanised VNAR dimer
# B20: D3 humanised ADV2 (VNAR)
# VNAR: TRVDQSPSSLSASVGDRVTITCVLTDTSYGLYSTSWFRKNPGTTDWERMSIGGRYSESVNKGAKSFTLTISSLQPEDSATYYCKAQSGMAISTGSGHGYNWYDGAGTKVEIKQ
# notes: also called D3 AD V2
# B21: B1 G2 (loop-grafted humanised B1) (VNAR)
# VNAR: TRVDQSPSSLSASVGDRVTITCVLTGANYGLASTYWYRKNPGSSNQERISISGRYSESVNKRTMSFTLTISSLQPEDSATYYCRAYPWGAGAPWLVQWYDGAGTKVEIKQ
# notes: humanised VNAR
# B22: B1 humanised V5 (VNAR)
# VNAR: B21 VNAR with T1A, R2S, L24V, S33A, R84K
# notes: humanised VNAR; also called B1V5
# B23: B1 humanised V7 (VNAR)
# VNAR: B21 VNAR with T1A, R2S, L10A, V18L, L24V, S33A, R84K, V106L, I108V
# notes: humanised VNAR; also called B1V7
# B24: B1 G1 (loop-grafted humanised B1) (VNAR)
# VNAR: B21 VNAR with Q46K, R48Q, R62G, M64K
# notes: humanised VNAR
# B25: ROR1 ECD Peptide 2 (peptide)
# peptide: RSTIYGSRLRINLDTTDTGYFQ
# notes: synthetic linear peptide; insoluble in PBS, repeated in 25% DMSO
# Molecular target: T1, human ROR1 extracellular domain-Fc fusion (human, UniProt Q01973 30-406)
# T1 construct: extracellular domain; also called hROR1; ROR1-hFc
# Experiment: SPR
Kd,koff,kon,Binder
7.8 nM,0.0206 s⁻¹,2.92e+06 M⁻¹ s⁻¹,B1
25.6 nM,0.025 s⁻¹,980000 M⁻¹ s⁻¹,B2
0.35 nM,0.000637 s⁻¹,2.08e+06 M⁻¹ s⁻¹,B3
0.36 nM,0.000598 s⁻¹,1.67e+06 M⁻¹ s⁻¹,B4

# Molecular target: T2, human ROR2 extracellular domain-Fc fusion (human, UniProt Q01974 34-403)
# T2 construct: extracellular domain; also called hROR2; ROR2-hFc
# Experiment: SPR
row,binding result,Binder
1,no binding,B1
2,no binding,B2
3,no binding,B4

# Molecular target: T1, human ROR1 extracellular domain-Fc …
# Experiment: SPR
# Remark: another data set of the same source
Kd,koff,kon,Binder
0.59 nM,0.0026 s⁻¹,4.96e+06 M⁻¹ s⁻¹,B5
1.43 nM,0.00277 s⁻¹,2.07e+06 M⁻¹ s⁻¹,B6
0.78 nM,0.0032 s⁻¹,4.2e+06 M⁻¹ s⁻¹,B7
1.61 nM,0.00296 s⁻¹,1.86e+06 M⁻¹ s⁻¹,B3

# Molecular target: T3, cynomolgus serum albumin (cynomolgus)
# T3 construct: also called CSA; Cyano
# Experiment: SPR, CSA on chip, pH 5.5
# T3 sequence (A2V9Z4 25-608): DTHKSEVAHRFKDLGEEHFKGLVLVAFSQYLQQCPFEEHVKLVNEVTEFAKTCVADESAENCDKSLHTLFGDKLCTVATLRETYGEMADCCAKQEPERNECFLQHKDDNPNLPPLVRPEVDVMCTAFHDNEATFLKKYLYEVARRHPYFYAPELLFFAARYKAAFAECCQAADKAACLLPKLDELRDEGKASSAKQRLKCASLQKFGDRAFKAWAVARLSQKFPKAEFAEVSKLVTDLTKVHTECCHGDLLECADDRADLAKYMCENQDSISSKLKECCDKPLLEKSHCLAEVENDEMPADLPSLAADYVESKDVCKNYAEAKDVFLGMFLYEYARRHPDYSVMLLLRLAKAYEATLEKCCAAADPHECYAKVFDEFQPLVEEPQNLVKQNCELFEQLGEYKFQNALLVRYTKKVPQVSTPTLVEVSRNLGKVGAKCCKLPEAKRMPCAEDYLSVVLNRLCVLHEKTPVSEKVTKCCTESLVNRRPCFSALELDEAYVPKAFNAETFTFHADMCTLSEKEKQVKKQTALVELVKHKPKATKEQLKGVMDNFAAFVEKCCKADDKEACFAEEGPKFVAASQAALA
row,Kd,Binder
1,1.11 nM,B8
2,5.54 nM,B9
3,6.74 nM,B10
4,8.21 nM,B11
5,7.01 nM,B12

# Molecular target: T3, cynomolgus serum albumin
# Experiment: SPR, CSA on chip, pH 7.4
row,Kd,Binder
1,3.36 nM,B8
2,1.75 nM,B9
3,3.41 nM,B10
4,2.1 nM,B13
5,3.68 nM,B11
6,2.3 nM,B12
7,7.97 nM,B14

# Molecular target: T1, human ROR1 extracellular domain-Fc …
# Experiment: SPR, hROR1 ECD-Fc on chip
Kd,koff,kon,Binder
0.18 nM,0.000846 s⁻¹,4.78e+06 M⁻¹ s⁻¹,B15
0.77 nM,0.00119 s⁻¹,1.88e+06 M⁻¹ s⁻¹,B16
18.9 nM,–,1.85e+06 M⁻¹ s⁻¹,B17
58.5 nM,~0.0545 s⁻¹,1.38e+06 M⁻¹ s⁻¹,B18
0.43 nM,0.00147 s⁻¹,4.3e+06 M⁻¹ s⁻¹,B19
51.6 nM,0.00236 s⁻¹,45800 M⁻¹ s⁻¹,B20
45.9 nM,0.0079 s⁻¹,185000 M⁻¹ s⁻¹,B21
0.74 nM,3.85e-05 s⁻¹,52000 M⁻¹ s⁻¹,B22
0.77 nM,5.54e-05 s⁻¹,77400 M⁻¹ s⁻¹,B23
82.8 nM,0.0162 s⁻¹,220000 M⁻¹ s⁻¹,B24

# Molecular target: T4, B1 VNAR (C-terminal His6 or His6Myc tag, not said which)
# T4 construct: shark VNAR domain; also called VNAR B1; B1 monomer
# Experiment: competition ELISA: B1 pre-incubated with the peptide, residual binding to coated huROR1-Fc
# T4 sequence (chain, as listed by the source): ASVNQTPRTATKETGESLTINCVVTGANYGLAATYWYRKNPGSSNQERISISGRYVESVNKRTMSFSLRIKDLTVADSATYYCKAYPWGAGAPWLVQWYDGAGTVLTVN
row,binding result,Binder
1,no binding (tested: 10 uM),B25
2,no binding (tested: 10 uM),YMESLHMQGEIENQI (synthetic linear peptide) [ROR1 ECD Peptide 1]
3,no binding (tested: 10 uM),QCVATNGKEVVSSTGVLFVKFGPPPTASPGYSDEYE (synthetic linear peptide) [ROR1 ECD Peptide 4]
4,no binding (tested: 10 uM),CQPWNSQYPHTHTFTALRFP (synthetic linear peptide) [ROR1 ECD Peptide 3]

# Molecular target: T5, D3 VNAR
# T5 construct: shark VNAR domain; also called D3 WT; D3 monomer; not shown: C-terminal His6 or His6Myc tag (His6Myc in flow cytometry)
# Experiment: competition ELISA: D3 pre-incubated with the peptide (25% DMSO), residual binding to coated huROR1-Fc
# T5 sequence (chain, as listed by the source): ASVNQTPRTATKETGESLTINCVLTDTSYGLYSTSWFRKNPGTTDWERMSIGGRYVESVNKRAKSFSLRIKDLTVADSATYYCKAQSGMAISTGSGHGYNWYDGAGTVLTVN
row,binding result,Binder
1,no binding,B25
2,no binding,YMESLHMQGEIENQI (synthetic linear peptide) [ROR1 ECD Peptide 1]
3,no binding,QCVATNGKEVVSSTGVLFVKFGPPPTASPGYSDEYE (synthetic linear peptide) [ROR1 ECD Peptide 4]
4,no binding,CQPWNSQYPHTHTFTALRFP (synthetic linear peptide) [ROR1 ECD Peptide 3]

# Molecular target: T6, D3-[G4S]5-D3 homodimer
# T6 construct: also called D3-D3; D3D3; not shown: C-terminal His6 or His6Myc tag (His6Myc in flow cytometry)
# Experiment: competition ELISA: D3-D3 pre-incubated with the peptide (25% DMSO), residual binding to coated huROR1-Fc
# T6 sequence (chain, as listed by the source): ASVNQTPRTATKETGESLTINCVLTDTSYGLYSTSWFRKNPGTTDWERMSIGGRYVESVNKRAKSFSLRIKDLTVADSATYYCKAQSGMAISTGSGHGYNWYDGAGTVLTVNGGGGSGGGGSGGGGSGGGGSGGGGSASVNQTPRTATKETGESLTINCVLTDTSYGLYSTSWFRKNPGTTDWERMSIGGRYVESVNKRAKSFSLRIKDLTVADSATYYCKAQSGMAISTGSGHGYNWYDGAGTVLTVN
row,binding result,Binder
1,no binding,B25
2,no binding,YMESLHMQGEIENQI (synthetic linear peptide) [ROR1 ECD Peptide 1]
3,no binding,QCVATNGKEVVSSTGVLFVKFGPPPTASPGYSDEYE (synthetic linear peptide) [ROR1 ECD Peptide 4]
4,no binding,CQPWNSQYPHTHTFTALRFP (synthetic linear peptide) [ROR1 ECD Peptide 3]
